Reference: patent US10406204B2, “Multimeric antimicrobial peptide complex which is displayed on cell surface” (KOREA ADVANCED INSTITUTE OF SCIENCE AND TECHNOLOGY, priority 2010, dated 2019)

Columns and labels:
Test in all cases: Antimicrobial activity of pepsin-treated E. coli displaying multimeric antimicrobial peptide complex
Type in all cases: cell-based
Conditions in all cases: pepsin-digested in SGF 30 minutes; E. coli BL21 (DE3) = 0%, synthesized Hinge2L = 100%; OD595
[1] = system: yeast Saccharomyces cerevisiae
Description: (§1) The antimicrobial effect of the E. coli strain, constructed in Example 4 and displaying the multimeric antimicrobial peptide complex on the cell surface, was measured. Specifically, the transformed E. coli BL21 (DE3) was cultured in 100 ml of LB medium, and when the culture medium reached an OD600 of 0.5-0.6, 0.2 mM IPTG was added thereto to induce the expression of the multimeric antimicrobial peptide complex linked to the cell surface anchoring motif. 4 hours after the induction of the expression, the medium was removed, and the cells were washed twice with NAPB (sodium phosphate buffer), and then resuspended in the same buffer. All the E. coli samples were adjusted to a cell number of 1×10^10 cfu/ml. Then, pepsin was dissolved in simulated gastric fluid (SGF) (0.084 N HCl, 35 mM NaCl, pH 1.2 or 2.0), and the E. coli cells were treated with the pepsin solution and incubated for 30 minutes. After the incubation, in order to deactivate pepsin and neutralize the pH, the same concentration of NaOH aqueous solution as that of the simulated gastric fluid was added to the cells, and the cell solution was centrifuged to remove cell debris other than the monomeric antimicrobial peptide digested by pepsin.
(§2) The antimicrobial activities of the pepsin-digested monomeric antimicrobial peptide against gram-positive Staphylococus aureus, gram-negative Escherichia coli and the yeast Saccharomyces cerevisiae were measured.
(§3) Each of the microbial strains was collected in the exponential growth phase during the culture, washed twice with NAPB, and then resuspended in the same buffer. The number of the microbial cells was adjusted to 1×10^5 cfu/ml. 10 μl of an aqueous solution containing each microbial strain and the pepsin-digested monomeric antimicrobial peptide was dispensed into each well of a 96-well plate, mixed well and incubated at 37° C. for 3 hours. After 3 hours, 2×TSB (Trypticase Soy Broth) medium was added to the cells which were then incubated at 37° C. for 12 hours, after which the absorbance at OD595 was measured.

[2] = system: gram-positive Staphylococus aureus
Description: as §1, §2, §3

[3] = system: gram-negative Escherichia coli
Description: as §1, §2, §3

B1: LH3: trimer of antimicrobial peptide Hinge2L linked to cell surface anchoring motif Lpp-OmpA, displayed on E. coli BL21 (DE3) (protein)
chain: MKATKLVLGNNNGPTHENQLGAGAFGGYQVNPYVGFEMGYDWLGRMPYKGSVENGAYKAQGVQLTAKLGYPITDDLDIYTRLGGMVWRADTKSNVYGKNHDTGVSPVFAGGVEYAITPEIATRGRLRVVRQWPIGRVVRRVVRRVVRLRVVRQWPIGRVVRRVVRRVVRLRVVRQWPIGRVVRRVVRRVVRL
modifications: displayed on E. coli BL21(DE3); DNA sequence of Lpp-OmpA-Hinge2L3
antimicrobial activity [1]: 33.17% | antimicrobial activity [2]: 17.95% | antimicrobial activity [3]: 30%
